Data on 1 molecule can be found in patent US20140179593A1 (published 2014).

Positions of bridges follow the written chain, without caps; N, C: chain ends. Non-standard residues stand in square brackets, D forms with d. S5 = C=CCCC[C@](C)(N)C(=O)O

In assay [1] the target is T1, hE1 for Nedd8 (APPBP1-UBA3, NAE1-UBA3) (Homo sapiens, UniProt Q13564 18-534; Q8TBC4 22-463, limits assumed).
T1 construct: Heterodimer of NAE1 and UBA3, expressed in E. coli as described previously
T1 sequence 1: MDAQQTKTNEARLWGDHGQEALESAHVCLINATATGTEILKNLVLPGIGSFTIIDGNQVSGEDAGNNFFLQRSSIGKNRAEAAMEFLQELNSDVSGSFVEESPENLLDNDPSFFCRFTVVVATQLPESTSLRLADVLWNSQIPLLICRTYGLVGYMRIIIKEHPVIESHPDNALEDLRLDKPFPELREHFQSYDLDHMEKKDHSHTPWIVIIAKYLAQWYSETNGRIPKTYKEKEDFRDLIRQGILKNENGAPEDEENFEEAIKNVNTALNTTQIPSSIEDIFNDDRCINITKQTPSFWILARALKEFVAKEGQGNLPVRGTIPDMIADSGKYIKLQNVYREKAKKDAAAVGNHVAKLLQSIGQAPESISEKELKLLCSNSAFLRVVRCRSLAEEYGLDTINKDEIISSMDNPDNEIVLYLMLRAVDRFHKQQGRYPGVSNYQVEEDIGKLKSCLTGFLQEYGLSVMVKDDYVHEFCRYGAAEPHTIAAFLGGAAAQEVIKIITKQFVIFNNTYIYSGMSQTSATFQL
T1 sequence 2: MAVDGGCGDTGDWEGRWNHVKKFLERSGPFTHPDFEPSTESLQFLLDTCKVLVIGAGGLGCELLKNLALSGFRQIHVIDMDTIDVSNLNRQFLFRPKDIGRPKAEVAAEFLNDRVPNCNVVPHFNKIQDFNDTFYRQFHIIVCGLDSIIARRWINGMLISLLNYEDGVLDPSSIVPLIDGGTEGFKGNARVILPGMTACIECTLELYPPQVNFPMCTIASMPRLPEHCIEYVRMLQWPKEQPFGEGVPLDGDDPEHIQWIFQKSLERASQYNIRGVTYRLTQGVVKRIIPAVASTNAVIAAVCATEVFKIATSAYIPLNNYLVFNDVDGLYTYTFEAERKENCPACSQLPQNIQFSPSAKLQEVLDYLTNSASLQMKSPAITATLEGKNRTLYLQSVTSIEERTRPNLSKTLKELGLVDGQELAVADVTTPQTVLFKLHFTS
The experiment in a line: not named in the sentence (ITC in Table 25). As for the experimental part:
(§1) Specifically, Phe5 and Gln9 were replaced with (S)-2-(4′-pentenyl) alanine and these side-chains were covalently linked to test the effect of “stapling” an acetylated Ubc12 peptide into a helix (Bird et al. (2008) Methods Enzymol 446:369-386).
(§2) Protein samples were buffer matched by desalting over a NAP-5 column (GE Healthcare) into 50 mM Hepes, 125 mM NaCl, 1 mM BME, pH 7.0 (ITC buffer). Peptides were dissolved by weight to a final concentration of 10 mM in ITC buffer and diluted further in ITC buffer as required for the experiments. […] The peptide ligands (4 mM) were constantly injected (1.5 μl). The interval time between each injection was 3 minutes and the duration of each injection was 3 seconds. […] Peptide ligands (250 μM) were constantly injected (2.5 μl). The interval time between each injection was three minutes and the duration of each injection was 5 seconds. […] The interval time between each injection was 3 minutes and the duration of each injection was 5 seconds. Obtained spectra were evaluated using Origin (V 7.0) to determine heats of binding and Kd values.

In assay [2] the target is T2, hDcn1^P (residues 62 to the C-terminal residue 259 of hDcn1, aka SCCRO or DCUN1D1) (Homo sapiens, UniProt Q96GG9 62-259).
T2 construct: Expressed as a GST fusion in E. coli; GST released by TEV protease; also called DCUN1D1^P; PONY domain of hDcn1
The experiment in a line: ITC; against Acetyl-hUbc12^1-12. As for the experimental part: as §1, §2

T2 sequence (Q96GG9 62-259): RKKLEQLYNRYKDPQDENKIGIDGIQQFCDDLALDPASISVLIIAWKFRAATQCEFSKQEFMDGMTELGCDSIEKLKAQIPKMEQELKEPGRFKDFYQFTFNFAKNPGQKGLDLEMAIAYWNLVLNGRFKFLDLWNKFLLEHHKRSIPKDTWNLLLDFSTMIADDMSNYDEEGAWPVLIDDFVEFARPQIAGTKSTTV

B1: Acetyl-hUbc12^1-12(5:9Staple) (peptide)
peptide: Ac-MIKL[S5]SLK[S5]QKK-NH2
modifications: staple 5-9
notes: Printed Ac-MIKLXSLKXQKK-NH2, X = 2-(4-pentenyl)alanine; also called stapled helical peptide
Regarding B1, the binding result in assay [1] was “no binding”. In assay [2], the “fold improvement of binding over the unstapled peptide” value was 14 fold.
